In patent US20260001937A1, “NOVEL RECOMBINANT FIBRINOGEN VARIANTS FOR FIBRIN SEALANTS FOR SURGICAL WOUND CARE” (Julius-Maximilians-Universität Würzburg, priority 2022, published 2026):

Tests used:
[1] = test system: ExpiCHO-S cell supernatant (degradation of fibrinogen α-chain); experiment: Screening of inhibitors for Fbg degradation in ExpiCHO-S cell supernatant (SDS-PAGE); format: biochemical, Chinese hamster; conditions: commercial human Fbg 3.3 mg/mL, 37 C, several days, Aprotinin 50 μg/mL, EDTA 4 mM, 1,10 Phenanthroline 1 mM, UK 370106 100 μM
Experimental: ExpiCHO-S cells were cultured to a density of 6×10^6 cells/mL. Afterwards, cells were centrifuged for 4 min at 1000 rpm at RT and the supernatant was collected. Commercially available fibrinogen (SigmaAldrich) was mixed with the supernatant to a final concentration of 3.3 mg/mL and a volume of 200 μl. The mixture incubated at 37° C. and 750 rpm and samples were taken at 0, 24 and 48 h. For the screening the different inhibitors were added to the mixture (final concentrations: PMSF: 1 mM; Aprotinin: 50 μg/mL; GM6001: 25 μM; EDTA: 4 mM; 1,10 Phenanthroline: 1 mM; UK 370106: 100 μM). As control fibrinogen was incubated in 10 mM Tris/HCl, 150 mM NaCl (pH 7.5) under the same conditions. For the visualization of fibrinogen degradation, 20 μL of the mixtures were analyzed using SDS-PAGE.
Commercially available human Fbg was incubated with the supernatant taken from the CHO cells used for the expression and incubated the protein at 37 C for several days.

human plasmin = target: T1, human plasmin (Homo sapiens, UniProt P00747); experiment: Plasmin digest in solution of Fbg and rFbg variants, high-resolution ESI-MS of γ-chain cleavage sites; format: biochemical; conditions: for plasmin cleavage at the 4 sites K88, K111, K382, K399 of the γ-chain: fibrinogen solution 1 mg/mL, plasmin 0.5 U/mL, 24 h, 37° C., high-resolution ESI-MS; for plasmin cleavage at position 382 of the γ-chain (FIG. 5): peptide fragments after plasmin and additional ProAlanase cleavage, both cleaved and non-cleaved peptides detected
T1 construct: Active plasmin is a serine protease that is derived from its zymogen plasminogen; purchased Merck
T1 sequence (P00747 97-580 limits assumed): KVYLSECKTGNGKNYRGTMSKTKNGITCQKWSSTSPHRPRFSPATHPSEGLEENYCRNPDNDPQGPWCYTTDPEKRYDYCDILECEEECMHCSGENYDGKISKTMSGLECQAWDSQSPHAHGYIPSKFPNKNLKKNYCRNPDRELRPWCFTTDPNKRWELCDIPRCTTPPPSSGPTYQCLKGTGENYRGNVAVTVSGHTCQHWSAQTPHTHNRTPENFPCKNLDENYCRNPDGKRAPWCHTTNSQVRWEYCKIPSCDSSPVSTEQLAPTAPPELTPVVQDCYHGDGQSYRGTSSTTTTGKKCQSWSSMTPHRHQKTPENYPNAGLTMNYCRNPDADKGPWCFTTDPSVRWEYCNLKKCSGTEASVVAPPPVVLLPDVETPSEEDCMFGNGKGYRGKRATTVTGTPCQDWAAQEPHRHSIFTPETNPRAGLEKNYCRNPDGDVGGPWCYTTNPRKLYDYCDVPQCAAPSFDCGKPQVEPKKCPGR
T1 sequence (P00747 581-810 limits assumed): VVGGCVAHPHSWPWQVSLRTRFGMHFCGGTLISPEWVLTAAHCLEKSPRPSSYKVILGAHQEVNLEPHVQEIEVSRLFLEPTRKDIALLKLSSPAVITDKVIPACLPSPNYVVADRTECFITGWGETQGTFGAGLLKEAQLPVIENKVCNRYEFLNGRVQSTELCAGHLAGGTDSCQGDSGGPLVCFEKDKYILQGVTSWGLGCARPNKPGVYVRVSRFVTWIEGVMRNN
Experimental: In order to analyze plasmin digestion of mutated restriction sites, 100 μL of human plasmin (Merck) (0.5 U/mL) were added to 100 μg of Fbg and rFbg (Ala and His) and incubated for 24 h at 37° C. and 130 rpm in order to ensure complete cleavage. Afterwards, samples were stored at −80° C. For the analysis of the time-dependent cleavage site determination and quantification of plasmin, fibrin gels (20 mg/mL) were incubated with different plasmin concentrations ranging from 0.005 mU/mL-0.5 U/mL. Samples were taken at different timepoints from 1 min to 24 h. PMSF (1 mM) was added to the sample and heated at 95° C. for 10 minutes to ensure plasmin inactivation. Samples were stored at −80° C.
Proteins were digested either with plasmin alone (vide supra) or with plasmin and ProAlanase (ProAla) (Promega) with slight differences in handling. For all digests, all samples (WT/HIS/ALA) were brought to a concentration of 0.2 μg/μL in 50 mM tris buffer. For “plasmin only” samples were immediately purified (see below). For ProAla (Promega), 50 μL of 8M Guanidinium Hydrochloride were added to 10 μg (50 μL) of protein stock solution and briefly heated to ensure denaturation. To enable specific ProAla digest the solution was acidified using 900 μL of 32 mM HCl. After pH was checked to be in the range of 1-1.5, ProAla was added (1:50 ProAla:Protein; […]), proteolysis was allowed to continue for 2.5 h. Afterwards, pH was set to slightly basic by addition of 0.5-1 mL of 2 M Tris buffer. In the next step, the samples were immediately purified.
Precursor Tolerance of 15 ppm, fragment mass tolerance of 20 ppm, digestion C-terminal of K (non-specific), modifications are concurrent with the PMI-Byos recommendations for sequence variant analysis workflows (two rare and common modifications allowed).
Precursor Tolerance of 15 ppm, fragment mass tolerance of 20 ppm, digestion C-terminal of A and P (non-specific), modifications are concurrent with the PMI-Byos recommendations for sequence variant analysis workflows (two rare and common modifications allowed).
The α-chain plays an important part in the gelation process of fibrin. Due to the truncated α-chain gel formation with rFbg was not possible, as the production of intact complex (compare above) was still ongoing. Therefore, plasmin digests in solution with WT as well as both Ala- and His-rFbg mutants was performed to investigate if the inserted mutations are limiting proteolytic efficiency of plasmin at the respective cleavage sites. Plasmin was added to the fibrinogen solution (1 mg/mL) to a final concentration of 0.5 U/mL and the mixture was incubated for 24 h to ensure complete cleavage of fibrinogen. […] At some positions both cleaved and non-cleaved peptides were detected, however no cleavage did contain a mutation. This might be due to residual WT-Fbg peptides either on the column (carryover) or through residual WT-Fbg at any point in the workup.

Sequence of His-rFbgH433R435 (chain, as listed by the source, chain 1 of 3): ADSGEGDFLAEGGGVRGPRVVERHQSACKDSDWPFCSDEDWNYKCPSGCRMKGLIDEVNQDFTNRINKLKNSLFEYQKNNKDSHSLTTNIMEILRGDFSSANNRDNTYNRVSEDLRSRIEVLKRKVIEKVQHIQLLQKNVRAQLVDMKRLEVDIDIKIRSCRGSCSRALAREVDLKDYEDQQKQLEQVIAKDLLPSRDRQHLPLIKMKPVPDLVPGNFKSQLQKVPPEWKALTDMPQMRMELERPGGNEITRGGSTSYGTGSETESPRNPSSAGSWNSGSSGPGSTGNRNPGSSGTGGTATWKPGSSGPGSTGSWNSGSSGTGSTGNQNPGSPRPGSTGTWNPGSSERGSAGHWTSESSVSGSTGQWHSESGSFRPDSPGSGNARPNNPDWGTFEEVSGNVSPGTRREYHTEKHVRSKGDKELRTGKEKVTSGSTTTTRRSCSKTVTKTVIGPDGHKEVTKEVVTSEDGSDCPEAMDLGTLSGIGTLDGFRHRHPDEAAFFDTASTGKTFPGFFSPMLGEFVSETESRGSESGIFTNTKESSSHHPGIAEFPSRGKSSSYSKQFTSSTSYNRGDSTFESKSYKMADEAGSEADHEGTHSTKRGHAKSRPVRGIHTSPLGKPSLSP
Sequence of His-rFbgH433R435 (chain, as listed by the source, chain 2 of 3): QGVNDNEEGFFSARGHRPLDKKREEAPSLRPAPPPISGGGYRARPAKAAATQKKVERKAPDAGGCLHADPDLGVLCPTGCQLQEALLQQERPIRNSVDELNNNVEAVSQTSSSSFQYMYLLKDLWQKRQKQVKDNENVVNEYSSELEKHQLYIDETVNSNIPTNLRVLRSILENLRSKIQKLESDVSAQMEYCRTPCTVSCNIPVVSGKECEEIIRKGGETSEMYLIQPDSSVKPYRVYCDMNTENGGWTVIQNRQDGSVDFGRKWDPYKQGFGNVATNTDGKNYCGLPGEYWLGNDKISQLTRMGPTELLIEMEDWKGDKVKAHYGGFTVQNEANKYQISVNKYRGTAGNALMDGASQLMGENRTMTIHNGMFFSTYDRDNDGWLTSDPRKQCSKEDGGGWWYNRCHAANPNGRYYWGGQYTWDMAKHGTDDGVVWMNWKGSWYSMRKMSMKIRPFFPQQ
Sequence of His-rFbgH433R435 (chain, as listed by the source, chain 3 of 3): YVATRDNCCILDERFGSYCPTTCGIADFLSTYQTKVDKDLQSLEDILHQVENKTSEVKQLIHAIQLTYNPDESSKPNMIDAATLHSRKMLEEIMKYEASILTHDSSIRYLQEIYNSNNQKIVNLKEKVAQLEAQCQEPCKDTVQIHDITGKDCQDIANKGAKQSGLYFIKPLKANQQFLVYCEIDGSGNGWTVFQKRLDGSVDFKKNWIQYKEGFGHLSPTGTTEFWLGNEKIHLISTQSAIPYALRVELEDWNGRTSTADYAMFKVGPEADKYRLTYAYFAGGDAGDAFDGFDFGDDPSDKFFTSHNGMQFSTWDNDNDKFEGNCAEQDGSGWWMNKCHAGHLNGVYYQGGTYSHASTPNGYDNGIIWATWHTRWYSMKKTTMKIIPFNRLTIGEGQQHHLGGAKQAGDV

| Compound | state of the Fbg α-chain after incubation with CHO cell supernatant plus inhibitor [1] | plasmin cleavage at the 4 sites K88, K111, K382, K399 of the γ-chain (human plasmin) | also measured |
| --- | --- | --- | --- |
| c1cnc2c(c1)ccc1cccnc12 [1,10 Phenantroline, 1,10 Phenanthroline] | intact α-chain was detected | – | – |
| O=C(O)CN(CCN(CC(=O)O)CC(=O)O)CC(=O)O [EDTA] | intact α-chain was detected | – | – |
| COC[C@@H](NC(=O)[C@@H](NC(=O)[C@H](CCCc1ccc(-c2ccccc2)c(C)c1)CC(=O)O)C(C)(C)C)c1ccccc1 [UK 370106, (βR)-β-[[[(1 S)-1-[[[(1 S)-2-Methoxy-1-phenylethyl]amino]carbonyl]-2,2-dimethylpropyl]amino]carbonyl]-2-methyl-[1,1′-biphenyl]-4-hexanoic acid] | intact α-chain was detected | – | – |
| Ala-rFbg: recombinant fibrinogen of Aα-, Bβ- and γ-chain with γ-chain K88A, K111A, K382A, K399A | – | no cleavage was detected | plasmin cleavage at position 382 of the γ-chain (FIG. 5) (human plasmin): partial cleavage |
| His-rFbg: recombinant fibrinogen of Aα-, Bβ- and γ-chain with γ-chain K88H, K111H, K382H, K399H | – | no cleavage was detected | plasmin cleavage at position 382 of the γ-chain (FIG. 5) (human plasmin): partial cleavage |
| WT: commercially available human fibrinogen (SigmaAldrich), wild type, used as control [reference compound] | – | could be detected | – |
| thrombin | – | – | thrombin-catalyzed fibrin polymerization, turbidity at 350 nm (His-rFbgH433R435): thrombin-induced fibrin polymerization of His-rFbgH433R435 was slightly reduced compared with control (pFbg), with a similar lag time and comparable absorption |
